Laboratory results taken from patent US20250163162A1 (SYNTHEKINE, published 2025).

T1: IL10Rα/IL2Rγ receptor (human, UniProt Q13651 22-578; P31785 23-369)
T1 sequence (looked up) 1: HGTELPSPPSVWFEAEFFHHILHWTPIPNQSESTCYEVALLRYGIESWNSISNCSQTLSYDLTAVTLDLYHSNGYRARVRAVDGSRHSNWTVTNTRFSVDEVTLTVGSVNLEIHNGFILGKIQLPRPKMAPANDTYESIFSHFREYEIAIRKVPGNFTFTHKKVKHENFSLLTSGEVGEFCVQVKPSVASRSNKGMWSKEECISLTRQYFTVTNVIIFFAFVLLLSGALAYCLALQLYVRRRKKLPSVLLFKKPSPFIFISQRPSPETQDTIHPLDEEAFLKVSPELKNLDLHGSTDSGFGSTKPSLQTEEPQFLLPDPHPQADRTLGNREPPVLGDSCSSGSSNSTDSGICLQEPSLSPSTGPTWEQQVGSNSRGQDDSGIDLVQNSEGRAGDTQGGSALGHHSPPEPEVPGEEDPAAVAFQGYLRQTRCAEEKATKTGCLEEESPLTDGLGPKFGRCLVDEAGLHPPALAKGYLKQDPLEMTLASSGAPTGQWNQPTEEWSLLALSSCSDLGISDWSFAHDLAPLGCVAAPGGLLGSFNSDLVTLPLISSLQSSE
T1 sequence (looked up) 2: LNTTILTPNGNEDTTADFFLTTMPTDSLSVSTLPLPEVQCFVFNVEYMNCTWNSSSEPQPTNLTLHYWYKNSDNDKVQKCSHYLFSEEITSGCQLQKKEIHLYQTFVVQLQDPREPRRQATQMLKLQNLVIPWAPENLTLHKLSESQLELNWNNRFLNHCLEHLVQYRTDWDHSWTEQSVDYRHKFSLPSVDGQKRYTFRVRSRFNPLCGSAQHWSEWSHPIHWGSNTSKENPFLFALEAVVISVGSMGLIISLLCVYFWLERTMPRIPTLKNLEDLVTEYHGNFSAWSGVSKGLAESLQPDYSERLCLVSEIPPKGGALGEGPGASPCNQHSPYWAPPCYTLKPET

B1: DR441(DR236-DR231) (bispecific antibody)
chain: QVQLQESGGGSVQAGGSLRLSCAASRFTYSSYCMGWFRQAPGKEREGVASIDSDGSTSYTDSVKGRFTISKDNAKNTLYLQMNSLKPEDTAMYYCALDLMSTVVPGFCGFLLSAGMDYWGKGTQVTVSSGGGSQVQLQESGGGSVQAGGSLRLSCTASGFTFDDREMNWYRQAPGNECELVSTISSDGSTYYADSVKGRFTISQDNAKNTVYLQMDSVKPEDTAVYYCAADFMIAIQAPGAGCWGQGTQVTVSSASHHHHHH
B2: DR395(DR229-DR239) (bispecific antibody)
chain: QVQLQESGGGLVQPGGSLRLSCTASGFSFSSYPMTWARQAPGKGLEWVSTIASDGGSTAYAASVEGRFTISRDNAKSTLYLQLNSLKTEDTAMYYCTKGYGDGTPAPGQGTQVTVSSGGGSQVQLQESGGGSVQAGGSLRLSCTVSGYTYSSNCMGWFRQAPGKEREGVATIYTGGGNTYYADSVKGRFTISQDNAKNTVYLQMNNLKPEDTAMYYCAAEPLSRVYGGSCPTPTFDYWGQGTQVTVSSASHHHHHH

Tests used:
Experiment in all cases: cell-based or functional assay
IL10Rα/IL2Rγ receptor [1] = target: T1, IL10Rα/IL2Rγ receptor
IL10Rα/IL2Rγ receptor [2] = target: T1, IL10Rα/IL2Rγ receptor; remark: listed apart in the source
IL10Rα/IL2Rγ receptor [3] = target: T1, IL10Rα/IL2Rγ receptor; remark: listed apart in the source
IL10Rα/IL2Rγ receptor [4] = target: T1, IL10Rα/IL2Rγ receptor; remark: listed apart in the source
IL10Rα/IL2Rγ receptor [5] = target: T1, IL10Rα/IL2Rγ receptor; remark: listed apart in the source
IL10Rα/IL2Rγ receptor [6] = target: T1, IL10Rα/IL2Rγ receptor; remark: listed apart in the source

Binder | pSTAT3 MFI, B cells, 0.0001 nM (unstimulated 1193.5) (IL10Rα/IL2Rγ receptor [1]) | pSTAT3 MFI, B cells, 0.001 nM (unstimulated 1193.5) (IL10Rα/IL2Rγ receptor [1]) | pSTAT3 MFI, B cells, 0.01 nM (unstimulated 1193.5) (IL10Rα/IL2Rγ receptor [1]) | pSTAT3 MFI, B cells, 0.1 nM (unstimulated 1193.5) (IL10Rα/IL2Rγ receptor [1]) | pSTAT3 MFI, B cells, 1 nM (unstimulated 1193.5) (IL10Rα/IL2Rγ receptor [1]) | pSTAT3 MFI, B cells, 10 nM (unstimulated 1193.5) (IL10Rα/IL2Rγ receptor [1]) | pSTAT3 MFI, B cells, 100 nM (unstimulated 1193.5) (IL10Rα/IL2Rγ receptor [1]) | pSTAT3 MFI, Monocytes, 0.0001 nM (unstimulated 2116) (IL10Rα/IL2Rγ receptor [2]) | pSTAT3 MFI, Monocytes, 0.001 nM (unstimulated 2116) (IL10Rα/IL2Rγ receptor [2]) | pSTAT3 MFI, Monocytes, 0.01 nM (unstimulated 2116) (IL10Rα/IL2Rγ receptor [2]) | pSTAT3 MFI, Monocytes, 0.1 nM (unstimulated 2116) (IL10Rα/IL2Rγ receptor [2]) | pSTAT3 MFI, Monocytes, 1 nM (unstimulated 2116) (IL10Rα/IL2Rγ receptor [2]) | pSTAT3 MFI, Monocytes, 10 nM (unstimulated 2116) (IL10Rα/IL2Rγ receptor [2]) | pSTAT3 MFI, Monocytes, 100 nM (unstimulated 2116) (IL10Rα/IL2Rγ receptor [2]) | pSTAT3 MFI, B cells, 100 nM (unstimulated 1045) (IL10Rα/IL2Rγ receptor [3]) | pSTAT3 MFI, CD4+ T cells, 100 nM (unstimulated 1778) (IL10Rα/IL2Rγ receptor [3]) | pSTAT3 MFI, CD8+ T cells, 100 nM (unstimulated 1288) (IL10Rα/IL2Rγ receptor [3]) | pSTAT3 MFI, Monocytes, 100 nM (unstimulated 1787) (IL10Rα/IL2Rγ receptor [3]) | pSTAT3 MFI, NK cells, 100 nM (unstimulated 1149) (IL10Rα/IL2Rγ receptor [3]) | pSTAT3 MFI, NK cells, 0.0001 nM (unstimulated 1315) (IL10Rα/IL2Rγ receptor [4]) | other results
B1 | 1120 MFI | 1130 MFI | 1130 MFI | 1120 MFI | 1220 MFI | 1540 MFI | 1470 MFI | 2030 MFI | 2040 MFI | 2030 MFI | 2010 MFI | 2060 MFI | 2340 MFI | 2290 MFI | 1280 MFI | 5760 MFI | 3940 MFI | 2130 MFI | 1660 MFI | 1250 MFI | pSTAT3 MFI, NK cells, 0.001 nM (unstimulated 1315) (IL10Rα/IL2Rγ receptor [4]): 1260 MFI; pSTAT3 MFI, NK cells, 0.01 nM (unstimulated 1315) (IL10Rα/IL2Rγ receptor [4]): 1270 MFI; pSTAT3 MFI, NK cells, 0.1 nM (unstimulated 1315) (IL10Rα/IL2Rγ receptor [4]): 1270 MFI; pSTAT3 MFI, NK cells, 1 nM (unstimulated 1315) (IL10Rα/IL2Rγ receptor [4]): 1440 MFI; pSTAT3 MFI, NK cells, 10 nM (unstimulated 1315) (IL10Rα/IL2Rγ receptor [4]): 1800 MFI; pSTAT3 MFI, NK cells, 100 nM (unstimulated 1315) (IL10Rα/IL2Rγ receptor [4]): 1770 MFI; pSTAT3 MFI, CD4 T cells, 0.0001 nM (unstimulated 1887) (IL10Rα/IL2Rγ receptor [5]): 1810 MFI; pSTAT3 MFI, CD4 T cells, 0.001 nM (unstimulated 1887) (IL10Rα/IL2Rγ receptor [5]): 1830 MFI; pSTAT3 MFI, CD4 T cells, 0.01 nM (unstimulated 1887) (IL10Rα/IL2Rγ receptor [5]): 1880 MFI; pSTAT3 MFI, CD4 T cells, 0.1 nM (unstimulated 1887) (IL10Rα/IL2Rγ receptor [5]): 2240 MFI; pSTAT3 MFI, CD4 T cells, 1 nM (unstimulated 1887) (IL10Rα/IL2Rγ receptor [5]): 4560 MFI; pSTAT3 MFI, CD4 T cells, 10 nM (unstimulated 1887) (IL10Rα/IL2Rγ receptor [5]): 6760 MFI; pSTAT3 MFI, CD4 T cells, 100 nM (unstimulated 1887) (IL10Rα/IL2Rγ receptor [5]): 6350 MFI; pSTAT3 MFI, CD8 T cells, 0.0001 nM (unstimulated 1446) (IL10Rα/IL2Rγ receptor [6]): 1380 MFI; pSTAT3 MFI, CD8 T cells, 0.001 nM (unstimulated 1446) (IL10Rα/IL2Rγ receptor [6]): 1410 MFI; pSTAT3 MFI, CD8 T cells, 0.01 nM (unstimulated 1446) (IL10Rα/IL2Rγ receptor [6]): 1430 MFI; pSTAT3 MFI, CD8 T cells, 0.1 nM (unstimulated 1446) (IL10Rα/IL2Rγ receptor [6]): 1610 MFI; pSTAT3 MFI, CD8 T cells, 1 nM (unstimulated 1446) (IL10Rα/IL2Rγ receptor [6]): 3060 MFI; pSTAT3 MFI, CD8 T cells, 10 nM (unstimulated 1446) (IL10Rα/IL2Rγ receptor [6]): 4470 MFI; pSTAT3 MFI, CD8 T cells, 100 nM (unstimulated 1446) (IL10Rα/IL2Rγ receptor [6]): 4260 MFI
B2 | 1130 MFI | 1130 MFI | 1140 MFI | 1150 MFI | 1260 MFI | 1340 MFI | 1360 MFI | 2060 MFI | 2060 MFI | 2020 MFI | 2020 MFI | 2210 MFI | 2340 MFI | 2440 MFI | 1030 MFI | 3570 MFI | 2700 MFI | 2020 MFI | 1430 MFI | 1260 MFI | pSTAT3 MFI, NK cells, 0.001 nM (unstimulated 1315) (IL10Rα/IL2Rγ receptor [4]): 1270 MFI; pSTAT3 MFI, NK cells, 0.01 nM (unstimulated 1315) (IL10Rα/IL2Rγ receptor [4]): 1260 MFI; pSTAT3 MFI, NK cells, 0.1 nM (unstimulated 1315) (IL10Rα/IL2Rγ receptor [4]): 1310 MFI; pSTAT3 MFI, NK cells, 1 nM (unstimulated 1315) (IL10Rα/IL2Rγ receptor [4]): 1640 MFI; pSTAT3 MFI, NK cells, 10 nM (unstimulated 1315) (IL10Rα/IL2Rγ receptor [4]): 1800 MFI; pSTAT3 MFI, NK cells, 100 nM (unstimulated 1315) (IL10Rα/IL2Rγ receptor [4]): 1760 MFI; pSTAT3 MFI, CD4 T cells, 0.0001 nM (unstimulated 1887) (IL10Rα/IL2Rγ receptor [5]): 1800 MFI; pSTAT3 MFI, CD4 T cells, 0.001 nM (unstimulated 1887) (IL10Rα/IL2Rγ receptor [5]): 1870 MFI; pSTAT3 MFI, CD4 T cells, 0.01 nM (unstimulated 1887) (IL10Rα/IL2Rγ receptor [5]): 1890 MFI; pSTAT3 MFI, CD4 T cells, 0.1 nM (unstimulated 1887) (IL10Rα/IL2Rγ receptor [5]): 2450 MFI; pSTAT3 MFI, CD4 T cells, 1 nM (unstimulated 1887) (IL10Rα/IL2Rγ receptor [5]): 4570 MFI; pSTAT3 MFI, CD4 T cells, 10 nM (unstimulated 1887) (IL10Rα/IL2Rγ receptor [5]): 5180 MFI; pSTAT3 MFI, CD4 T cells, 100 nM (unstimulated 1887) (IL10Rα/IL2Rγ receptor [5]): 4670 MFI; pSTAT3 MFI, CD8 T cells, 0.0001 nM (unstimulated 1446) (IL10Rα/IL2Rγ receptor [6]): 1380 MFI; pSTAT3 MFI, CD8 T cells, 0.001 nM (unstimulated 1446) (IL10Rα/IL2Rγ receptor [6]): 1420 MFI; pSTAT3 MFI, CD8 T cells, 0.01 nM (unstimulated 1446) (IL10Rα/IL2Rγ receptor [6]): 1400 MFI; pSTAT3 MFI, CD8 T cells, 0.1 nM (unstimulated 1446) (IL10Rα/IL2Rγ receptor [6]): 1800 MFI; pSTAT3 MFI, CD8 T cells, 1 nM (unstimulated 1446) (IL10Rα/IL2Rγ receptor [6]): 3320 MFI; pSTAT3 MFI, CD8 T cells, 10 nM (unstimulated 1446) (IL10Rα/IL2Rγ receptor [6]): 3880 MFI; pSTAT3 MFI, CD8 T cells, 100 nM (unstimulated 1446) (IL10Rα/IL2Rγ receptor [6]): 3450 MFI
